Earlier results, collected in PMC6222470.
Blank lines part the entries; values can stand above or below the substance they belong to.

Assays:
[1] = biological target: histone H3.3K36me3 H3.3 peptide (Homo sapiens) (UniProt P84243)
[2] = biological target: histone H3K14ac peptide H3 tail peptide (Homo sapiens) (UniProt P68431)
[3] = biological target: histone H3 H3K36me3 peptide (Homo sapiens) (UniProt P68431)
[4] = biological target: histone H3 H3K14ac peptide (Homo sapiens) (UniProt P68431)
[5] = biological target: histone H4 H4K20me2 peptide (Homo sapiens) (UniProt P62805)

Sequence of PHF1 Tudor (O43189 26-89): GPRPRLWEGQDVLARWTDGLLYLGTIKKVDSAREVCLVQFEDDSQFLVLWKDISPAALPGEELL
Sequence of BRM BD BD (P51531 1378-1506): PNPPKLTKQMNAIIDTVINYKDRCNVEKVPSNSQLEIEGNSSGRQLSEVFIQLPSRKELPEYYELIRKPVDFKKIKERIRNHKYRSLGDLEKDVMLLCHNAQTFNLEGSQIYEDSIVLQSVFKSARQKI
Sequence of BRM BD (P51531 1378-1506): as above
Sequence of 53BP1 TTD (Q12888 1484-1603): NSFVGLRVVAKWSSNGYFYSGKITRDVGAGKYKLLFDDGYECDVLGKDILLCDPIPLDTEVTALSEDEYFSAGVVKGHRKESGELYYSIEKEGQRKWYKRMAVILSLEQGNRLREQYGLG
Sequence of ZMYND11 PHD-BD-ZnF-PWWP (Q15326 100-371): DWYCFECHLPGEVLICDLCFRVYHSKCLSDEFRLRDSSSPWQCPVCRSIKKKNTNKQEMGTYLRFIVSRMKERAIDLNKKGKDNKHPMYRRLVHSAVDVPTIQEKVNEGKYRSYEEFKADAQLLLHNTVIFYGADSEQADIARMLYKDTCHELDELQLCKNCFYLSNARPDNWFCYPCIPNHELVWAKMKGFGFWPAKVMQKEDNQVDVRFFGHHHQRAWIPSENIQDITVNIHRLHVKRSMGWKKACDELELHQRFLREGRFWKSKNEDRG
Sequence of histone H3.3K36me3 H3.3 peptide (Homo sapiens) (P84243 20-43): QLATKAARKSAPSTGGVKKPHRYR

Substance: ZMYND11 PHD-BD-ZnF-PWWP (from UniProt Q15326)
Kd [1]: 56 µM

Substance: PHF1 Tudor (from UniProt O43189)
Kd [3]: 36 µM

Other lines, results leading:

Kd [2]: 900 µM
Substance: BRM BD BD (from UniProt P51531)

Kd [4]: 900 µM
Substance: BRM BD (from UniProt P51531)

Kd [5]: 19.7 µM
Substance: 53BP1 TTD (from UniProt Q12888)
